Usually Kd stands for the free concentration of one partner at which half of the binding sites on the other are occupied at equilibrium, for simple one-to-one binding. Higher therefore signals weaker binding.

Changes are numbered by the printed parent chain.

Experiment in all cases: high-throughput RNA pulldown from lysate on Ni-NTA beads; HRP: 50 mM Tris pH 8, 150 mM NaCl, 1 mM beta-mercaptoethanol, 50 ug/ml BSA, 3 ug/ml yeast RNA, 0.5% heparin; ITC and FP: Tris pH 8, 200 mM KCl, 5% glycerol; MST: 50 mM Tris pH 8, 200 mM NaCl, 1 mM DTT, BSA, heparin, 0.05% Tween 20
Settings in all cases: tags: N-terminal His-eGFP

The target in series [1] is T1, GFP-9S library array, motif 4 ND N98W;D124F (synthetic construct, N98W;D124F).
T1 chain: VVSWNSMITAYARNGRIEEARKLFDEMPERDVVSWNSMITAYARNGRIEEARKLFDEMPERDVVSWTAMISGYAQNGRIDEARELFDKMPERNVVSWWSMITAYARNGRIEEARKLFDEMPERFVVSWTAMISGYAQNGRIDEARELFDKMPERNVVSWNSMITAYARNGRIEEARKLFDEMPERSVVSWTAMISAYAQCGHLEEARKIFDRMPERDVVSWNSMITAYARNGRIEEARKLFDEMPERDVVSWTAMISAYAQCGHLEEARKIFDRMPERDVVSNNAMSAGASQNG

In series [2] the target is T2, GFP-9S library array, motif 4 ND N98E;D124L (synthetic construct, N98E;D124L).
T2 chain: T1 chain with W98E, F124L

In series [3] the target is T3, GFP-9S library array, motif 4 ND N98I;D124W (synthetic construct, N98I;D124W).
T3 chain: T1 chain with W98I, F124W

Series [4] deals with T4, GFP-9S library array, motif 4 ND N98S;D124E (synthetic construct, N98S;D124E).
T4 chain: T1 chain with W98S, F124E

Series [5] deals with T5, GFP-9S library array, motif 4 ND N98C;D124V (synthetic construct, N98C;D124V).
T5 chain: T1 chain with W98C, F124V

As for AUUAAACGUGA (ssRNA) [IR-rpoA-A], the Kd was determined as 274 nM in series [1] (label: 5' IRDye 800CW); 147 nM in series [2] (label: 5' IRDye 800CW); 252 nM in series [3] (label: 5' IRDye 800CW); 70.5 nM in series [4] (label: 5' IRDye 800CW); 98.1 nM in series [5] (label: 5' IRDye 800CW).

As for AUUACACGUGA (ssRNA) [Cy5-rpoA], the Kd was determined as 95.8 nM in series [1] (label: 5' Cy5); 63.1 nM in series [2] (label: 5' Cy5); 74.5 nM in series [3] (label: 5' Cy5); 276 nM in series [4] (label: 5' Cy5); 130 nM in series [5] (label: 5' Cy5).

Take AUUAGACGUGA (ssRNA) [Cy5-rpoA-G]: the Kd is 80.4 nM in series [1] (label: 5' Cy5); 69 nM in series [2] (label: 5' Cy5); 98.3 nM in series [3] (label: 5' Cy5); 122 nM in series [4] (label: 5' Cy5); 124 nM in series [5] (label: 5' Cy5).

Consider AUUAUACGUGA (ssRNA) [IR-rpoA-U], for which the Kd in series [1] (label: 5' IRDye 800CW) was 273 nM; in series [2] (label: 5' IRDye 800CW) it was 196 nM; in series [3] (label: 5' IRDye 800CW) it was 136 nM; in series [4] (label: 5' IRDye 800CW), 201 nM; in series [5] (label: 5' IRDye 800CW) it was 167 nM.

These data come from article PMC8809517, “Cofactor-independent RNA editing by a synthetic S-type PPR protein”.
